Experiment: soluble on expression in E. coli; label from the status in PepcDB or PDB records

| Sequence | soluble on expression in E. coli |
| --- | --- |
| MDLFTRKDGTSIHYSTLGEGYPIVLIHTVLDNYSVFNKLAAELAKSFQVVLIDLRGHGYSDKPRHIEIKDFSDDIVELLKYLYIEEVAFVCHEMGGIIGADISVRYPEFTSSLTLVNPTSIEGELPEERLFRKYAHIIRNWDPEKQDKFLNKRKYYRPRKMNRFLKHVVDTNEISTKEEIQAVKEVFKNADISQTYRNVVVPTKIIAGEFGERTTRLEAKEVADLIQNADFEVYQESSAFPFVEEQERFVEDTAAFINKHHDEKHV | not soluble |
| MSNFISPVYEIKSIPIEKISPNDYNPNSVAPPEMKLLYDSIKSDGYTMPIVCYYDKEEDRYSIVDGFHRYRIMLDYSDIYERESGRLPVSVIDKSLDYRMASTIRHNRARGSHD | not soluble |
| MSLESILITGASGFIGSFIVEEALKRKFGVWAGIRPTSSKKYLKNRKIHFLELDFAHPNELRAQLSGHKGTYNKFDYIIHCAGVTKCPDKNTFDYVNYLQTKYFIDTLKALNMVPKQFIYISTLSVFGPVREKDYSPIEAGDVPMPNTAYGLSKLKAELYIQSIPGFPYVIYRPTGVYGPRELDYFLMAKSIRQHVDFSVGFRRQDLTFVYVKDIVQAIFLGIEKKVTRRAYFLTDGKVYNSRVFSDLIQKELGNPFVIHVKCPLIVLKVISLLAEFIATRSGKSSTLNSDKYKIMKQRNWQCDITPAINELGYAPEYDLEKGVRETIDWYKNEGWEGHHHHHH | soluble |
| MGSDKIHHHHHHMAAPEKTAGSKGEATQMRDAPALVGSDRQKILRAGFIPLVDASVLIAAAEFGFADREGLILDLVKDVSWANVRDRLAFRQFDIAHMLSPMPVASMLGLGSNPSPTITPFSLGRGGNAITLSTRLFARMKALTGLSETAGALENARALKLVLDDMRARGEAPPTLGMTYPFSSHNYEFRYWLAAGGIHPDHDVKLVVVPPPMTSDALAAGAIDGFCVGAPWNIVAAERGVGRIVAAKQDLWPSAPEKVIGMRPEWAESQQETVGRLLTALDAAASWCDLADNHDALSGALADPRYIGAPQSIIRRVLAGEFSIDSQGNRRVIEKYFTFHGDHANYPRQSQSLWIYSQMIRWGQAELSETGVNAALSAYRPDIYRAALGDGKAPGDADIRIEGQDEGDRFVDGFVFDPADIAGYVNSFAVRTSVPVSAPSGEA | not soluble |
| SLDTEKDCIKAVAAKDGITVIKVKSSNKLLSWHFMRKLFEIFEFYQEPVDMVATSEVGVSLTIDNDKNLPDIVRALSDIGDVTVDKDMVIICIVGDMEWDNVGFEARIINALKGVPVRMISYGGSNYNVSVLVKAEDKKKALIALSNKLFNSRATKA | soluble |
| MVIELKNEKVTVQFKEFGGALSSIKDQDGIEYLWQGNPAYWSSQAPVLFPICGSLRNDKGIYTSKKHSHRYGSIPRHGLVRKKNFRFEQLGKDSVVFTITPDKEMLMQYPYHFELKIIYTLKHTTIRTEYQVINKEKESIMPYFIGGHPGLNCPLFAGDRYEDYYLEFEKEETCTVPKSFPDTGLLDLQDRKIFLKGQKYLDLDYSLFTHDAITLDNLQSRSVSLRSKNHGGGLRLDFADFPYLILWSTANKSPFIALEPWSGLSTAVDESDYFEEKRNVSFVEPGQFDRNYFDITVLLEHHHHHH | soluble |
| MKRVFGILVCFMLLLSGTSVSFAQSEKTKQDKTEETTPKLAEQASSAIVIEQDTGKVLFDKNPNEKLPPASMTKIMTMLLIMEQVEKGKLKLTDKVRASEHAASMGGSQIFLEPGEEMTVNEMLKGIAIASGNDASVAVAEHIAGSEEGFVNMMNKKAKDLGLKNTHFQNPTGLPAKDHYSTANDMAIMAKELMKYPLIRKYTGKYEDYLREDTDKKFWLVNTNKLVRFYPGVDGVKTGFTTEAKYCLTASAEKNGMRVISVVMGAPTSKERNNQVTKLLDYAFGQYMTKKLYTRGEKIKTVQVGKGKKEKVDLVASDNVSLLMKKGENMDKVKQEVIAEKKVKAPIKKGDALGTLVIKKDKDVLLKQTIVAKEDVAAASWWELFKRSFGMFSTSK | not soluble |
| MAHHHHHHMGKHMNNQDFAETEQAARAIRKLLNGEIDTIKLENGNKLKIRSSDEKDDAHKRHNDKTNYSFIDNSEEENVQTNLLRKNETVDAGSKIVEDQEDFYILDNESIEAIANKISMENKFHEFEAEAFAQSLKDIIRSLNN | soluble |

— the DeepSol protein solubility set
